Biological target: human fibrinogen (human) (UniProt P02671)
Test: ELISA

EC50	Substance
87 nM	recombinant wild-type A1A2A3 (WT) domains protein of VWF (domain or fragment)
63 nM	recombinant gain-of-function (GOF) A1(R1450E)A2A3 mutant of VWF (domain or fragment)
